Measurements: article PMC10866937, “Aptamers targeting SARS-CoV-2 nucleocapsid protein exhibit potential anti pan-coronavirus activity”
Read-outs that look alike come from different tables or passages of the source.

How the values were obtained:
[1] = target: SARS-CoV-2 nucleocapsid protein (NP) (SARS-CoV-2 (WT), UniProt P0DTC9 1-419); assay: CE; details: protein: commercial
[2] = target: SARS-CoV nucleocapsid protein (SARS NP) (SARS-CoV, UniProt P59595 1-422); details: protein: commercial
[3] = target: MERS-CoV nucleocapsid protein (MERS NP) (MERS-CoV, UniProt K9N4V7 1-411); details: protein: commercial
[4] = target: HCoV-OC43 nucleocapsid protein (HCoV-OC43, UniProt P33469 1-448); assay: CE; Kd range for six aptamers 6.57-31.76 nM; details: protein: recombinant
[5] = label: 5'-FAM in CE (position not restated for aptamers)

Measured: binding result

B1: Seq-333 (ssDNA)
DNA: AGGGGGGACACCTAGATTGTTGGCCGTGCGGATACG
binds: [1]; label: FAM in CE | [2]; label: FAM in CE | [3]; label: FAM in CE | [4]; label: FAM in CE

B2: Seq-1022 (ssDNA)
DNA: AGGGGGGACATCTGGAGTGTTGGCCGTGCGGATACG
binds: [1]; label: FAM in CE | [2]; label: FAM in CE | [3]; label: FAM in CE | [4]; label: FAM in CE

B3: Seq-4650 (ssDNA)
DNA: TCCACGGTCGGTCCCCTTACCACTGGTCCCTTTGTC
binds: [1]; label: FAM in CE | [2]; label: FAM in CE | [3]; label: FAM in CE | [4]; label: FAM in CE

B4: Seq-1280 (ssDNA)
DNA: CACCTCTCACCCCACGGTTCTGGTCCTTCCCCGACG
binds: [1]; label: FAM in CE | [2]; label: FAM in CE | [3]; label: FAM in CE | [4]; label: FAM in CE

B5: Seq-59 (ssDNA)
DNA: ACTCCCACCTTTATTGAGGGCGGTGACGGGTTCCCTC
binds: [1]; label: FAM in CE | [2]; label: FAM in CE | [3]; label: FAM in CE | [4]; label: FAM in CE

B6: Seq-7 (ssDNA)
DNA: GCAGGCAAGGCTCTACTGACCCGTTGCTTGATCGAC
binds: [1]; [5] | [2]; [5] | [3]; [5] | [4]; [5]
